In ChEMBL document CHEMBL2074573, “Is the monkey an appropriate animal model to examine drug-drug interactions involving renal clearance? Effect of probenecid on the renal elimination of H2 receptor antagonists” (J Pharmacol Exp Ther, 2005):

What was measured:
not read [1] = substrate: CN/C(=N/CCSCc1nc[nH]c1C)NC#N; experiment: not read
not read [2] = substrate: NC(N)=Nc1nc(CSCCC(N)=NS(N)(=O)=O)cs1; experiment: not read
[3] = substrate: CNC(=C[N+](=O)[O-])NCCSCc1ccc(CN(C)C)o1; experiment: TP_TRANSPORTER: cell accumulation in hOAT3 expressing HEK cells; assay type: functional, cell-based, HEK293

B1: Organic anion transporter 3 (Homo sapiens) (protein)
chain: MTFSEILDRVGSMGHFQFLHVAILGLPILNMANHNLLQIFTAATPVHHCRPPHNASTGPWVLPMGPNGKPERCLRFVHPPNASLPNDTQRAMEPCLDGWVYNSTKDSIVTEWDLVCNSNKLKEMAQSIFMAGILIGGLVLGDLSDRFGRRPILTCSYLLLAASGSGAAFSPTFPIYMVFRFLCGFGISGITLSTVILNVEWVPTRMRAIMSTALGYCYTFGQFILPGLAYAIPQWRWLQLTVSIPFFVFFLSSWWTPESIRWLVLSGKSSKALKILRRVAVFNGKKEEGERLSLEELKLNLQKEISLAKAKYTASDLFRIPMLRRMTFCLSLAWFATGFAYYSLAMGVEEFGVNLYILQIIFGGVDVPAKFITILSLSYLGRHTTQAAALLLAGGAILALTFVPLDLQTVRTVLAVFGKGCLSSSFSCLFLYTSELYPTVIRQTGMGVSNLWTRVGSMVSPLVKITGEVQPFIPNIIYGITALLGGSAALFLPETLNQPLPETIEDLENWSLRAKKPKQEPEVEKASQRIPLQPHGPGLGSS
- Km (not read [1]): 149 µM
- Km (not read [2]): 124 µM
- Km [3]: 234 µM
